Kd data for five molecules are collected here from PMC9801508 (2022).

To fix the notation:
B5: BCL11A extended zinc finger domain (exZnF23) (domain or fragment)
chain: PPVKSKSCEFCGKTFKFQSNLVVHRRSHTGEKPYKCNLCDHACTQASKLKRHMKTHMHKSSPMTVKSDDGLSTASSPEPGTSDLVGSASSALKSVVAKFKSENDPNLIPENGD

Where two headings read alike, the source gives them in different places.

Experiment [1] addresses B5. The experiment is described as follows: MST.
Experiment [2] addresses T1, BCL11A ZnF23 zinc finger domain.
T1 chain: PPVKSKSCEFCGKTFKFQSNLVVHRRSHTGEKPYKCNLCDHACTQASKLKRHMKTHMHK
The experiment is described as follows: MST.

Experiment [3] deals with B5.
For experiment [4], the target named is B5. The experiment is described as follows: MST.

Broadly, the Kd is the equilibrium constant for the complex coming apart.

B1: Nanobody wt2D9 (initial hit) (VHH)
VHH: QVQLVESGGGLVQAGGSLRLSCAASGSIFVNNAMGWYRQAPGKERELVAAISASGGSTYYADSVKGRFTISRDNAKNTVYLQMNSLKPEDTAVYYCAADQDVYPYEYWGQGTQVTVSS
As to B1, the Kd in [1] amounted to 1260 nM; in [2], 32.9 µM.

B2: Nanobody 2D9_W108L (VHH)
VHH: QVQLVESGGGLVQAGGSLRLSCAASGSIFVNNAMGWYRQAPGKERELVAAISASGGSTYYADSVKGRFTISRDNAKNTVYLQMNSLKPEDTAVYYCAADQDVYPYEYLGQGTQVTVSS
As to B2, in [3], the affinity, expressed as Kd, was 23.4 nM.

B3: Nanobody 2D9 (2D9_V102G) (VHH)
VHH: QVQLVESGGGLVQAGGSLRLSCAASGSIFVNNAMGWYRQAPGKERELVAAISASGGSTYYADSVKGRFTISRDNAKNTVYLQMNSLKPEDTAVYYCAADQDGYPYEYWGQGTQVTVSS
B3: the Kd in experiment [4] amounted to 320 nM; in experiment [3] it was 343 nM.

B4: ZF5.3-2D9 (cell-permeant nanobody) (other)
chain: QVQLVESGGGLVQAGGSLRLSCAASGSIFVNNAMGWYRQAPGKERELVAAISASGGSTYYADSVKGRFTISRDNAKNTVYLQMNSLKPEDTAVYYCAADQDGYPYEYWGQGTQVTVSS
B4 came in with an equilibrium dissociation constant (Kd) in experiment [4] of 674 nM.

With B5, the dissociation constant (Kd) in the experiment with Q100L worked out at 224 nM; with A97V it was 75.2 nM; with W108R it was 56.5 nM; in the experiment with V102D it was 331 nM; in the experiment with L81F, 1460 nM.
